Results published in paper PMC9303947.

Molecular target: Myo1^IQ12-FRET protein (CyPet and YPet separated by both Myo1 IQ motifs) (S. pombe)
Assay: FRET or BRET; Cam1 or ^ACECam1 titrated into 0.5 µM Myo1^IQ12-FRET protein in solution, absence of calcium; % change in donor CyPet fluorescence (excitation 435 nm); 140 mM KCl, 2 mM MgCl2, 20 mM MOPS pH 7.0, 2 mM EGTA; two binding events fitted

Substance | affinity of the first binding event | affinity of the second binding event
Cam1 (unacetylated Schizosaccharomyces pombe calmodulin) (from UniProt P05933 1-150) (natural protein) | < 0.1 µM | 1.47 µM
^ACECam1 (amino-terminally acetylated Schizosaccharomyces pombe calmodulin) (from UniProt P05933 1-150) (natural protein) | < 0.1 µM | 0.68 µM
